# Source: patent US9957297B2, “Template-fixed peptidomimetics as inhibitors of FPR1” (POLYPHOR AG, priority 2011, dated 2018)
# Bridges are numbered along the chain shown (N, C = ends). [ ]: non-standard residue; d: D form.
# T1: Formyl-Peptide Receptor 1 (UniProt P21462 1-350, limits assumed)
# T1 sequence (looked up): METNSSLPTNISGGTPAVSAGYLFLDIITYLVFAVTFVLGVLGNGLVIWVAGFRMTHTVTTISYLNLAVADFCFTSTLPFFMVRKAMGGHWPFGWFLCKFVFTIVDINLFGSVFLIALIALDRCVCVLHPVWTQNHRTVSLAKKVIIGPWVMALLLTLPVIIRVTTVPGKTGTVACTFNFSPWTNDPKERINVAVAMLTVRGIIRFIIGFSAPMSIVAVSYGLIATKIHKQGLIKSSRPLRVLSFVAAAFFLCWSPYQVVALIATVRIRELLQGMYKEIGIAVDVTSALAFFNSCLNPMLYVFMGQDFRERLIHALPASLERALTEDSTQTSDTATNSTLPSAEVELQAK
# Biological target: T1, Formyl-Peptide Receptor 1
# Test: cell-based or functional assay
row,β-Arrestin IC50 [nM],Binder
1,213,cyclo(YHACWG[dA]WTICYQK[dP]P) (disulfide 4-11; SMILES CC[C@H](C)[C@@H]1NC(=O)[C@H]([C@@H](C)O)NC(=O)[C@H](Cc2c[nH]c3ccccc23)NC(=O)[C@@H](C)NC(=O)CNC(=O)[C@H](Cc2c[nH]c3ccccc23)NC(=O)[C@@H]2CSSC[C@H](NC1=O)C(=O)N[C@@H](Cc1ccc(O)cc1)C(=O)N[C@@H](CCC(N)=O)C(=O)N[C@@H](CCCCN)C(=O)N1CCC[C@@H]1C(=O)N1CCC[C@H]1C(=O)N[C@@H](Cc1ccc(O)cc1)C(=O)N[C@@H](Cc1c[nH]cn1)C(=O)N[C@@H](C)C(=O)N2) [cyclo(-Tyr-His-Ala-Cys-Trp-Gly-^DAla-Trp-Thr-Ile-Cys-Tyr-Gln-Lys-^DPro-Pro-)]
2,404,cyclo(AHACWG[dP]WTICYQK[dP]P) (disulfide 4-11; SMILES CC[C@H](C)[C@@H]1NC(=O)[C@H]([C@@H](C)O)NC(=O)[C@H](Cc2c[nH]c3ccccc23)NC(=O)[C@H]2CCCN2C(=O)CNC(=O)[C@H](Cc2c[nH]c3ccccc23)NC(=O)[C@@H]2CSSC[C@H](NC1=O)C(=O)N[C@@H](Cc1ccc(O)cc1)C(=O)N[C@@H](CCC(N)=O)C(=O)N[C@@H](CCCCN)C(=O)N1CCC[C@@H]1C(=O)N1CCC[C@H]1C(=O)N[C@@H](C)C(=O)N[C@@H](Cc1c[nH]cn1)C(=O)N[C@@H](C)C(=O)N2) [cyclo(-Ala-His-Ala-Cys-Trp-Gly-^DPro-Trp-Thr-Ile-Cys-Tyr-Gln-Lys-^DPro-Pro-)]
3,131,cyclo(EHACWG[dP]WTICYQK[dP]P) (disulfide 4-11; SMILES CC[C@H](C)[C@@H]1NC(=O)[C@H]([C@@H](C)O)NC(=O)[C@H](Cc2c[nH]c3ccccc23)NC(=O)[C@H]2CCCN2C(=O)CNC(=O)[C@H](Cc2c[nH]c3ccccc23)NC(=O)[C@@H]2CSSC[C@H](NC1=O)C(=O)N[C@@H](Cc1ccc(O)cc1)C(=O)N[C@@H](CCC(N)=O)C(=O)N[C@@H](CCCCN)C(=O)N1CCC[C@@H]1C(=O)N1CCC[C@H]1C(=O)N[C@@H](CCC(=O)O)C(=O)N[C@@H](Cc1c[nH]cn1)C(=O)N[C@@H](C)C(=O)N2) [cyclo(-Glu-His-Ala-Cys-Trp-Gly-^DPro-Trp-Thr-Ile-Cys-Tyr-Gln-Lys-^DPro-Pro-)]
4,294,cyclo(THACWG[dP]WTICYQK[dP]P) (disulfide 4-11; SMILES CC[C@H](C)[C@@H]1NC(=O)[C@H]([C@@H](C)O)NC(=O)[C@H](Cc2c[nH]c3ccccc23)NC(=O)[C@H]2CCCN2C(=O)CNC(=O)[C@H](Cc2c[nH]c3ccccc23)NC(=O)[C@@H]2CSSC[C@H](NC1=O)C(=O)N[C@@H](Cc1ccc(O)cc1)C(=O)N[C@@H](CCC(N)=O)C(=O)N[C@@H](CCCCN)C(=O)N1CCC[C@@H]1C(=O)N1CCC[C@H]1C(=O)N[C@@H]([C@@H](C)O)C(=O)N[C@@H](Cc1c[nH]cn1)C(=O)N[C@@H](C)C(=O)N2) [cyclo(-Thr-His-Ala-Cys-Trp-Gly-^DPro-Trp-Thr-Ile-Cys-Tyr-Gln-Lys-^DPro-Pro-)]
5,590,cyclo(KHACHG[dP]WTICYQK[dP]P) (disulfide 4-11; SMILES CC[C@H](C)[C@@H]1NC(=O)[C@H]([C@@H](C)O)NC(=O)[C@H](Cc2c[nH]c3ccccc23)NC(=O)[C@H]2CCCN2C(=O)CNC(=O)[C@H](Cc2c[nH]cn2)NC(=O)[C@@H]2CSSC[C@H](NC1=O)C(=O)N[C@@H](Cc1ccc(O)cc1)C(=O)N[C@@H](CCC(N)=O)C(=O)N[C@@H](CCCCN)C(=O)N1CCC[C@@H]1C(=O)N1CCC[C@H]1C(=O)N[C@@H](CCCCN)C(=O)N[C@@H](Cc1c[nH]cn1)C(=O)N[C@@H](C)C(=O)N2) [cyclo(-Lys-His-Ala-Cys-His-Gly-^DPro-Trp-Thr-Ile-Cys-Tyr-Gln-Lys-^DPro-Pro-)]
6,189,cyclo(YHACHG[dP]WTICYEK[dP]P) (disulfide 4-11; SMILES CC[C@H](C)[C@@H]1NC(=O)[C@H]([C@@H](C)O)NC(=O)[C@H](Cc2c[nH]c3ccccc23)NC(=O)[C@H]2CCCN2C(=O)CNC(=O)[C@H](Cc2c[nH]cn2)NC(=O)[C@@H]2CSSC[C@H](NC1=O)C(=O)N[C@@H](Cc1ccc(O)cc1)C(=O)N[C@@H](CCC(=O)O)C(=O)N[C@@H](CCCCN)C(=O)N1CCC[C@@H]1C(=O)N1CCC[C@H]1C(=O)N[C@@H](Cc1ccc(O)cc1)C(=O)N[C@@H](Cc1c[nH]cn1)C(=O)N[C@@H](C)C(=O)N2) [cyclo(-Tyr-His-Ala-Cys-His-Gly-^DPro-Trp-Thr-Ile-Cys-Tyr-Glu-Lys-^DPro-Pro-)]
7,598,cyclo(YHACHG[dP]WTICYTK[dP]P) (disulfide 4-11; SMILES CC[C@H](C)[C@@H]1NC(=O)[C@H]([C@@H](C)O)NC(=O)[C@H](Cc2c[nH]c3ccccc23)NC(=O)[C@H]2CCCN2C(=O)CNC(=O)[C@H](Cc2c[nH]cn2)NC(=O)[C@@H]2CSSC[C@H](NC1=O)C(=O)N[C@@H](Cc1ccc(O)cc1)C(=O)N[C@@H]([C@@H](C)O)C(=O)N[C@@H](CCCCN)C(=O)N1CCC[C@@H]1C(=O)N1CCC[C@H]1C(=O)N[C@@H](Cc1ccc(O)cc1)C(=O)N[C@@H](Cc1c[nH]cn1)C(=O)N[C@@H](C)C(=O)N2) [cyclo(-Tyr-His-Ala-Cys-His-Gly-^DPro-Trp-Thr-Ile-Cys-Tyr-Thr-Lys-^DPro-Pro-)]
8,202,cyclo(YHACWG[dP]WTICYTK[dP]P) (disulfide 4-11; SMILES CC[C@H](C)[C@@H]1NC(=O)[C@H]([C@@H](C)O)NC(=O)[C@H](Cc2c[nH]c3ccccc23)NC(=O)[C@H]2CCCN2C(=O)CNC(=O)[C@H](Cc2c[nH]c3ccccc23)NC(=O)[C@@H]2CSSC[C@H](NC1=O)C(=O)N[C@@H](Cc1ccc(O)cc1)C(=O)N[C@@H]([C@@H](C)O)C(=O)N[C@@H](CCCCN)C(=O)N1CCC[C@@H]1C(=O)N1CCC[C@H]1C(=O)N[C@@H](Cc1ccc(O)cc1)C(=O)N[C@@H](Cc1c[nH]cn1)C(=O)N[C@@H](C)C(=O)N2) [cyclo(-Tyr-His-Ala-Cys-Trp-Gly-^DPro-Trp-Thr-Ile-Cys-Tyr-Thr-Lys-^DPro-Pro-)]
9,342,cyclo(HHACWG[dP]WTICYQK[dP]P) (disulfide 4-11; SMILES CC[C@H](C)[C@@H]1NC(=O)[C@H]([C@@H](C)O)NC(=O)[C@H](Cc2c[nH]c3ccccc23)NC(=O)[C@H]2CCCN2C(=O)CNC(=O)[C@H](Cc2c[nH]c3ccccc23)NC(=O)[C@@H]2CSSC[C@H](NC1=O)C(=O)N[C@@H](Cc1ccc(O)cc1)C(=O)N[C@@H](CCC(N)=O)C(=O)N[C@@H](CCCCN)C(=O)N1CCC[C@@H]1C(=O)N1CCC[C@H]1C(=O)N[C@@H](Cc1c[nH]cn1)C(=O)N[C@@H](Cc1c[nH]cn1)C(=O)N[C@@H](C)C(=O)N2) [cyclo(-His-His-Ala-Cys-Trp-Gly-^DPro-Trp-Thr-Ile-Cys-Tyr-Gln-Lys-^DPro-Pro-)]
10,169,cyclo(YHKCHG[dP]WTICYEK[dP]E) (disulfide 4-11; SMILES CC[C@H](C)[C@@H]1NC(=O)[C@H]([C@@H](C)O)NC(=O)[C@H](Cc2c[nH]c3ccccc23)NC(=O)[C@H]2CCCN2C(=O)CNC(=O)[C@H](Cc2c[nH]cn2)NC(=O)[C@@H]2CSSC[C@H](NC1=O)C(=O)N[C@@H](Cc1ccc(O)cc1)C(=O)N[C@@H](CCC(=O)O)C(=O)N[C@@H](CCCCN)C(=O)N1CCC[C@@H]1C(=O)N[C@@H](CCC(=O)O)C(=O)N[C@@H](Cc1ccc(O)cc1)C(=O)N[C@@H](Cc1c[nH]cn1)C(=O)N[C@@H](CCCCN)C(=O)N2) [cyclo(-Tyr-His-Lys-Cys-His-Gly-^DPro-Trp-Thr-Ile-Cys-Tyr-Glu-Lys-^DPro-Glu-)]
11,278,cyclo(YHACWG[dP]WTICYAK[dP]P) (disulfide 4-11; SMILES CC[C@H](C)[C@@H]1NC(=O)[C@H]([C@@H](C)O)NC(=O)[C@H](Cc2c[nH]c3ccccc23)NC(=O)[C@H]2CCCN2C(=O)CNC(=O)[C@H](Cc2c[nH]c3ccccc23)NC(=O)[C@@H]2CSSC[C@H](NC1=O)C(=O)N[C@@H](Cc1ccc(O)cc1)C(=O)N[C@@H](C)C(=O)N[C@@H](CCCCN)C(=O)N1CCC[C@@H]1C(=O)N1CCC[C@H]1C(=O)N[C@@H](Cc1ccc(O)cc1)C(=O)N[C@@H](Cc1c[nH]cn1)C(=O)N[C@@H](C)C(=O)N2) [cyclo(-Tyr-His-Ala-Cys-Trp-Gly-^DPro-Trp-Thr-Ile-Cys-Tyr-Ala-Lys-^DPro-Pro-)]
12,166,cyclo(YHACFG[dP]WTICYQK[dP]P) (disulfide 4-11; SMILES CC[C@H](C)[C@@H]1NC(=O)[C@H]([C@@H](C)O)NC(=O)[C@H](Cc2c[nH]c3ccccc23)NC(=O)[C@H]2CCCN2C(=O)CNC(=O)[C@H](Cc2ccccc2)NC(=O)[C@@H]2CSSC[C@H](NC1=O)C(=O)N[C@@H](Cc1ccc(O)cc1)C(=O)N[C@@H](CCC(N)=O)C(=O)N[C@@H](CCCCN)C(=O)N1CCC[C@@H]1C(=O)N1CCC[C@H]1C(=O)N[C@@H](Cc1ccc(O)cc1)C(=O)N[C@@H](Cc1c[nH]cn1)C(=O)N[C@@H](C)C(=O)N2) [cyclo(-Tyr-His-Ala-Cys-Phe-Gly-^DPro-Trp-Thr-Ile-Cys-Tyr-Gln-Lys-^DPro-Pro-)]
13,735,cyclo(HYACWG[dP]WTICYQK[dP]P) (disulfide 4-11; SMILES CC[C@H](C)[C@@H]1NC(=O)[C@H]([C@@H](C)O)NC(=O)[C@H](Cc2c[nH]c3ccccc23)NC(=O)[C@H]2CCCN2C(=O)CNC(=O)[C@H](Cc2c[nH]c3ccccc23)NC(=O)[C@@H]2CSSC[C@H](NC1=O)C(=O)N[C@@H](Cc1ccc(O)cc1)C(=O)N[C@@H](CCC(N)=O)C(=O)N[C@@H](CCCCN)C(=O)N1CCC[C@@H]1C(=O)N1CCC[C@H]1C(=O)N[C@@H](Cc1c[nH]cn1)C(=O)N[C@@H](Cc1ccc(O)cc1)C(=O)N[C@@H](C)C(=O)N2) [cyclo(-His-Tyr-Ala-Cys-Trp-Gly-^DPro-Trp-Thr-Ile-Cys-Tyr-Gln-Lys-^DPro-Pro-)]
14,184,cyclo(YHACYG[dP]WTICYQK[dP]P) (disulfide 4-11; SMILES CC[C@H](C)[C@@H]1NC(=O)[C@H]([C@@H](C)O)NC(=O)[C@H](Cc2c[nH]c3ccccc23)NC(=O)[C@H]2CCCN2C(=O)CNC(=O)[C@H](Cc2ccc(O)cc2)NC(=O)[C@@H]2CSSC[C@H](NC1=O)C(=O)N[C@@H](Cc1ccc(O)cc1)C(=O)N[C@@H](CCC(N)=O)C(=O)N[C@@H](CCCCN)C(=O)N1CCC[C@@H]1C(=O)N1CCC[C@H]1C(=O)N[C@@H](Cc1ccc(O)cc1)C(=O)N[C@@H](Cc1c[nH]cn1)C(=O)N[C@@H](C)C(=O)N2) [cyclo(-Tyr-His-Ala-Cys-Tyr-Gly-^DPro-Trp-Thr-Ile-Cys-Tyr-Gln-Lys-^DPro-Pro-)]
